A short description of the first series: melting temperature. Conditions: Circular dichroism.
On to “ARVDOTPRTATKETGESLTINCVLTDTSYGLSSTYWYRKNPGSSNKEQISISGRYVESVNKRTKSFSLRIKDLTVADSATYICNAYIVRGVYGIIAKDVYGDGTALTVK”, for which the Tm was 64 °C.

With “ARVEQTPRTATKETGESLTINCVLTGGSCSLYSTSWFRKNPGTTDWERISIGGRYVESVNKGAKSFSLRIKDLTVADSATYYCKAQSCMDSRTVVLDWYEGSGTVLTVK”, the Tm was determined as 76 °C.

“PRVEQTPRITTKETGESLTINCVLTGTSCNLWTATWFRKNPGTTDWERIRIGGRYVESVNKGAKSFSLRIKDLTVADSATYYCKVQFNLYCGEADWYDGAGTLLTVK”: the Tm stood at 66 °C.

In the case of “EVQLVESGGGLVQPGGSLRLSCAASGSTFSSSSVGWYRQAPGKQRELVSAITSGGSTNTADSVKGRFTISRDNSKNTLYLQMNSLRAEDTAVYYCNVAGRNWVPISRYSPGPYWGQGTLVTVSS”, the Tm turned out to be 60.9 °C.

As to “EVQLVESGGGLVQPGGSLRLSCAASGSTFSSSSVGWYRQAPGKGLELVSAITSGGSTNTADSVKGRFTISRDNSKNTLYLQMNSLRAEDTAVYYCNVAGRNWVPISRYSPGPYWGQGTLVTVSS”, the Tm was found to be 63.3 °C.

For the sequence “QLQLVESGGGLVQAGGSLRLSCAASGRTFSSATMGWFRQAPGKEREFVAAISWSGLSRYYADSVKGRFTISRDNAENTVYLQMNSLKTEDTAVYYCAADSWGCSGLGCYDARQYDVWGQGTQVTVSS”, the Tm came to 98.2 °C.

Turning to “QVQLVESGGGLVQAGGSLRLSCAASGRTYTMGWFRQAPGKEREFVAAMRWSDTDYADSLKGRFTISRDNANNAMYLQMNSLGPEDTAVYYCAAGEAWLARSTHHYDYWGQGTQVTVSS”, the Tm is 72.3 °C.

On to “TRVDQTPRTATKETGESLTINCVLTGTSCSLYSTSWFRKNPGTTDWERISIGGRYVESVNKGAKSFSLRIKDLTVADSATYYCKAQKHCGYDWYDGAGTALTVK”, for which the Tm stood at 72 °C.

Staying with this series, now noted: DSF (SYPRO).
Regarding “QVQLQESGGGSVQAGGSLRLSCAASGYTYTMGWFRQAPGKEREGVTIIYTGYDNIVYADSVKGRFTISRDNAKNTVYLQMNNLKPEDTAMYHCAAATRGLPRSYFDPGWYDSWGQGTQVTVSS”, the Tm was found to be 62.5 °C.

Turning to “QVQLVESGGGSVQAGGSLRLSCAASGSISSITYLGWFRQAPGKEREGVAALSTSSGTTYYADSVKGRFTVSLDNAENTVYLQMNSLKPEDTALYYCAAASSGSSSPLSSSSYTYWGQGTQVTVSS”, the Tm worked out at 95 °C.

Consider “QVQLQESGGGSVQAGGSLRLSCVASEYDFNSYSSVSVGWFRQAPGKECVLVSRIGNDARTDYSDNVKGRFTISRDNAKRTAYLEMNSLKAEDTAVYYCAANQLSSAVVGTEYPCSKAAFAHWGQGTQVTVSS”, for which the Tm was found to be 64.8 °C.

“EVQLQASGGGLVQPGGSLRLACVASGFTLEYSAIGWFRQAPGKEREAVSRIRNRDGRAIYADSVKDRFTISRDNAKSTVYLQMDSLKPEDTATYYCGRHIGVRSSWALPSEYDYWGQGTQYIYSS”: the Tm turned out to be 60 °C.

Take “QVKLEESGGGLVQAGGSLRLSCAASERTFSRYPVAWFRQAPGAEREFVAVISSTGTSTYYADSVKGRFTISRDNAKVTVYLQMNNLKREDTAVYFCAVNSKRMRLQDPNEYDYWGQGTQVTVSSGSEQKLISEEDLNHHHHHH”: the Tm stood at 81.3 °C.

Regarding “QVKLEESGGGLVQAGGSLRLSCAASERTFSRYPVAWFRQAPGAEREFVAVISSTGTSTYYADSVKGRFTISRDNAKVTVYLQMNNLKREDTAVYFCAVNSQRTRLYDPNEYDYWGQGTQVTVSSGSEQKLISEEDLNHHHHHH”, the Tm is 79 °C.

“QVKLEESGGGLVQAGGSLRLSCAASERTFSRYPVAWFRQAPGAEREFVAVISSTGTSTYYADSVKGRFTISRDNAKVTVYLQMNNLKREDTAVYFCAVNSKRTRLQDPNEYDYWGQGTQVTVSSGSEQKLISEEDLNHHHHHH”: the Tm amounted to 81.4 °C.

Consider “EVQLQASGGGLVQAGSSLRLSCAASGLTTSTLYRMGWFRQAPGKEREFVGTITWSGGSTHYPDSLKGRFTISRDDAKNTGFLQMDSLKPEDTAIYYCAARTSAGIYDPTSPPAYDSWGQGTQVTVSS”, for which the Tm was 70 °C.

In the case of “QVKLEESGGGLVQAGGSLRLSCAASERTFSRYPVAWFRQAPGAEREFVAVISSTGTSTYYADSVKGRFTISRDNAKVTVYLQMNNLKREDTAVYFCAVNSQRRRLQDPNEYDYWGQGTQVTVSSGSEQKLISEEDLNHHHHHH”, the Tm amounted to 79.1 °C.

Regarding “DVQLQASGGGLVQAGGSLRLSCAASGSTFSIKHHGWYRRAPGNQREWVAGINSENITNVAGAVKGRFTISRDNAKNTVYLQMNSLKVEDTAVYFCYAQDNDYRFLHRFWGQGTQVTVSLEPKTPKPQ”, the Tm was determined as 52 °C.

Regarding “QVKLEESGGGLVQAGGSLRLSCAASERTFSRYPVAWFRQAPGAEREFVAVISSTGTSTYYADSVKGRFTISRDNAKVTVYLQMNNLKREDTAVYFCAVNSQRTRLQNPNEYDYWGQGTQVTVSSGSEQKLISEEDLNHHHHHH”, the Tm is 74.9 °C.

Take “QVKLEESGGGLVQAGGSLRLSCAASERTFSRYPVAWFRQAPGAEREFVAVISSTGTSTYYADSVKGRFTISRDNAKVTVYLQMNNLKREDTAVYFCAVNSQRKRLQDPNEYDYWGQGTQVTVSSGSEQKLISEEDLNHHHHHH”: the Tm came out at 78.5 °C.

For “GPHMAQVQLVESGGRLVQAGDSLRLSCAASGRTFSTSAMAWFRQAPGREREFVAAITWTVGNTILGDSVKGRFTISRDRAKNTVDLQMDNLEPEDTAVYYCSARSRGYVLSVLRSVDSYDYWGQGTQVTVS”, the Tm worked out at 53.6 °C.

Turning to “QVKLEESGGGLVQAGGSLRLSCAASERTFSRYPVAWFRQAPGAEREFVAVISSTGTSTYYADSVKGRFTISRDNAKVTVYLQMNNLKREDTAVYFCAVNSKRKRLQDPNEYDYWGQGTQVTVSSGSEQKLISEEDLNHHHHHH”, the Tm was 81.5 °C.

Turning to “QVKLEESGGGLVQAGGSLRLSCAASERTFSRYPVAWFRQAPGAEREFVAVISSTGRSTYYADSVKGRFTISRDNAKVTVYLQMNNLKREDTAVYFCAVNSQRMRLQDPNEYDYWGQGTQVTVSSGSEQKLISEEDLNHHHHHH”, the Tm was determined as 77 °C.

With “QVKLEESGGGLVQAGGSLRLSCAASERTFSRYPVAWFRQAPGAEREFVAVISSTGTSTYYADSVKGRFTISRDNAKVTVYLQMNNLKREDTAVYFCAVNSQRTRLLDPNEYDYWGQGTQVTVSSGSEQKLISEEDLNHHHHHH”, the Tm was 80 °C.

Consider “QVQLQESGGGSVQAGGSLRLSCESSGMTFSVYNLGLRQAPGQECELSTITRDGSTDYADSMKGRFTISRDNAKNTMYLQMTSLKPDDTAVYYCAAGVGVVDCTEGQGTQVTVSS”, for which the Tm was found to be 51.8 °C.

For “KVQLVESGGGLVQAGGSLRLACTASGSAFSINTMGWYRRAPGKQRELVASITSSGSTTYADSVKGRFTISRDSAKNTVFLQMNSVKPEDTSVYYCNGEIQRTDYNFWGQGTQVTVSS”, the Tm stood at 59.6 °C.

For “QVKLEESGGGLVQAGGSLRLSCAASERTFSRYPVAWFRQAPGAEREFVAVISSTGTSTYYADSVKGRFTISRDNAKVTVYLQMNNLKREDTAVYFCAVNSQRTRLWDPNEYDYWGQGTQVTVSSGSEQKLISEEDLNHHHHHH”, the Tm amounted to 79.7 °C.

As to “QVQLQESGGGSVQAGGSLRLSCAVSGYTYSSYSIGWFRQAPGKEREGVAAINSGGSTNYAGSVEGRFTISQDNAKNTVSLLMNSLKPEDTATYYCAVGAFFTLRPTLYNYKGQGTQVTVSS”, the Tm came out at 48.3 °C.

The series is the same for the next values; noted with them: Other.
With “QVQLVESGGGLVQAGGSLRLSCAASGYAYTYIYMGWFRQAPGKEREGVAAMDSGGGGTLYADSVKGRFTISRDKGKNTVYLQMDSLKPEDTATYYCAAGGYELRDRTYGQWGQGTQVTVSSAAALEHHHHHH”, the Tm turned out to be 64.2 °C.

Still in this series, the particulars now being: nanoDSF.
Regarding “QVQLQESGGGSVQAGGSLRLSCAASGYTYTMGWFRQAPGKEREGVTIIYTGYDNIVYADSVKGRFTISRDNAKNTVYLQMNNLKPEDTAMYHCAAATRGLPRSYFDPGWYDSWGQGTQVTVSS”, the Tm stood at 70 °C.

As to “QVQLQESGGGSVQAGGSLRLSCVASEYDFNSYSSVSVGWFRQAPGKECVLVSRIGNDARTDYSDNVKGRFTISRDNAKRTAYLEMNSLKAEDTAVYYCAANQLSSAVVGTEYPCSKAAFAHWGQGTQVTVSS”, the Tm was found to be 64.5 °C.

Regarding “TGGGLVQAGASLRLSCAASGRTFSTDHMGWFRQAPQKEREFVAAINAWSGLSIYYADSVKGRFTISRDNDKKTAYLQMNSLKPEDTAVYYCAAKEMGRGWVPQSSDDYDAWGQGTQV”, the Tm was found to be 66.6 °C.

As for “TGGGWVQAGGSLRLSCAASGRAASGNAMAWFRQAPGKEREFVALISWSGGRPYYANSVKGRFAISRDNATNTVYLQMNRLKPEDTAVYYCAASPTIAILPTPYDYWGQGTQV”, the Tm was found to be 75.3 °C.

On to “KVQLVESGGGLVQAGGSLRLACTASGSAFSINTMGWYRRAPGKQRELVASITSSGSTTYADSVKGRFTISRDSAKNTVFLQMNSVKPEDTSVYYCNGEIQRTDYNFWGQGTQVTVSS”, for which the Tm is 63.5 °C.

Regarding “QVQLQESGGGSVQAGGSLRLSCAVSGYTYSSYSIGWFRQAPGKEREGVAAINSGGSTNYAGSVEGRFTISQDNAKNTVSLLMNSLKPEDTATYYCAVGAFFTLRPTLYNYKGQGTQVTVSS”, the Tm was found to be 53.6 °C.

For the origin of these results see the FLAb antibody collection.
